Targets include GLB1 peptide/HLA-A*24:02 (Homo sapiens, HLA-A*24:02, strain); ATG2A/HLA-A*24:02 (Homo sapiens, HLA-A*24:02, strain); PHOX2B/HLA-A*24:02/β2m (Homo sapiens, HLA-A*24:02, strain).
What all share (assay): SPR
The target of experiment [1] is CNGB3 peptide/HLA-A*24:02 (Homo sapiens, HLA-A*24:02, strain).

A word on the Kd: it is a measure of binding affinity in units of concentration. The low end stands for higher affinity, the high end for lower affinity.

B1: peptide-centric CAR (PC-CAR) 10LH, single-chain fragment variable (scFv) (scFv, V domains shown)
V domain 1: EVQLLESGGGLVQPGGSLRLSCAASGFTFDSYAMSWVRQAPGKGLEWVSAISGYGGSTYYADSVKGRFTISRDNSKNTLYLQMNSLRAEDTAVYYCAKYTYFLDAFDIWGQGTMVTVSS
V domain 2: QSVLTQPPSVSVSPGQTASITCSGDSLGNKYACWYQQKPGQSPVLVIYQDSKRPSGIPERFSGSNSGNTATLTISGTQAMDEADYYCQAWDSSRGYTVVFGTGTKVTVS
As for B1, the binding result (with GLB1 peptide/HLA-A*24:02; in experiment [1]) was “binds” each time. Besides, the Kd came to 1000 nM with ATG2A/HLA-A*24:02 and 11 nM in the experiment with PHOX2B/HLA-A*24:02/β2m.

For the origin of these results see article PMC10782944 (Science immunology, 2023).
